From the supplement of paper PMC10567573

B1: TBX5 (parent)
chain: YQNHKITQLKIENNPFAKGFRGSD
B2: ZNF263 (parent)
chain: RTHTGEKPYKCTLCGENFSHRSNL

Variants of: B1
Assay: protein stability index of a GFP-peptide fusion (GPS, HEK-293T) (PSI 1-6); higher = more stable
Conditions: c terminus: a fixed tail appended
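Further: lentivirally expressed fusions sorted by FACS into six bins by GFP to DsRed ratio, PSI derived from sequencing read proportions per bin multiplied by bin number.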

Protein stability index: each site, then its substitutions
Q2: C 2.54; N 3.48; I 2.19; F 2.75; A 1.84; K 2.85; S 3.26; T 2.4; H 1.46; W 2.04; E 3.14; Y 2.92; R 2.61; V 2.39; G 2.54; M 2.61; L 2.84; P 2.63; D 4.02
N3: D 2.71; F 2.23; V 2.39; Y 1.99; L 2.07; P 2.57; S 2.3; M 2.16; Q 2.93; T 2.42; E 3.33; A 1.94; R 2.44; W 1.89; K 2.64; H 2.29; C 1.75; I 1.97; G 2.26
Y1: R 3.61; A 3.46; E 3.58; C 3.19; T 3.65; K 3.91; W 2.92; N 3.35; D 3.46; M 3.79; Q 3.68; H 3.79; P 3.52; S 2.82; V 3.22; G 3.64; F 2.48; I 3.32; L 3.42
H4: F 1.89; L 3.06; E 3.19; K 2.4; G 2.57; M 2.49; A 2.52; I 2.11; C 1.67; D 3.52

Variants of: B2
Assay: as above
Conditions: c terminus: a fixed tail appended

Protein stability index: each site, then its substitutions
T2: Y 1.45; E 1.76; Q 2.02; D 2; I 1.98; C 2.07; G 1.74; R 3.06; S 2.1; N 2.28; K 2.7; P 2.34
L13: F 2.2; A 2.18; K 2.18; Q 2.16; Y 2.04; R 1.56; V 2.14; E 3.3; T 2.57; N 3.03; P 2.31; C 2.81; W 1.88; H 2.06
Y9: E 2.4; Q 1.84; M 1.69; A 2.15; H 2.61; F 1.96; P 2.04; W 1.72; R 2.14; I 1.52; K 2.45; C 3.37; V 2.33; L 1.79
G15: H 2.23; W 1.84; Y 1.82; Q 2.15; E 1.76; P 2.57; F 2.17; M 1.9; C 1.59; S 1.62
E16: T 2.51; R 2.03; N 1.77; F 2.3; L 1.5; D 1.93; V 2.17; M 1.86; K 1.59; H 1.87
K10: Y 1.93; L 1.86; G 2.06; H 2.2; D 2.68; R 1.81; A 1.75; F 1.76; I 1.72; C 2.44
C14: R 3.17; T 3.37; S 3.01; N 3.19; G 3.13; Q 3.45; Y 2.52; V 3.3; D 2.96; E 4.05; F 2.66
E6: F 1.62; L 2.18; D 2.37; Q 2.34; R 2.34; K 1.9; Y 2.64; P 2.68; T 2.26; A 2.15; M 2.37; V 2.08
N17: M 1.76; P 1.81; T 1.6; A 1.99; R 2.09; S 2.02; I 2.26; D 1.7; L 1.98; Q 1.91; C 2.25
C11: W 2.04; G 3.59; K 2.92; R 2.81; S 3.36; Y 2.42; Q 3.24; I 2.56; F 2.06; M 2.78; T 2.91
N23: V 1.94; I 2.32; L 1.69; R 2.17; W 2.55; M 2.03; S 2.05; D 1.88; F 2.23; T 1.94; P 2.6; E 2.31; G 2.06
T12: G 1.74; L 2.23; F 2.1; D 2.01; S 1.87; I 1.92; R 2.37; N 2.44; P 2.4; E 1.8; A 2.07; W 2.22; M 1.43; H 1.68
L24: H 2.42; S 2.52; C 4; G 2.82; T 2.4; F 1.59; E 2.43; I 2.15; V 2.49
P8: I 1.63; V 1.91; C 2.51; L 1.98; N 1.96; G 2.44; D 2.44; E 2.82; T 1.9; F 1.38; Y 1.64; H 2.06
S22: A 1.83; N 2.33; L 1.94; G 2.14; R 2.4; K 2.46
K7: R 2.04; I 1.99; W 2.03; G 2.31; T 1.94; H 2.19; C 3.39; N 1.9; M 1.97
S19: K 1.66; L 1.81; P 1.77; W 1.74; C 2.06; Y 1.97; H 1.48; N 2.08; I 2.81; V 2.51; T 1.91
F18: A 1.86; V 1.88; T 1.95; W 2.07; P 2.19; D 2.27; H 2.76; G 2.29
T4: Q 2.01; G 2.02; N 2.1; I 1.82; R 3.78; D 1.87; F 2.05; V 1.69; M 2.1; K 2.43
H20: Y 2.13; T 2.11; V 1.89; R 1.94; K 1.8; P 1.82; S 2.32; I 2.04; A 2.06; N 1.95; D 1.84
H3: F 2.15; T 1.93; V 1.85; L 2.35; A 2.27; R 2.58; K 2.05; Y 1.93; S 2.18; D 2.06; P 2
G5: E 2.46; D 2.05; R 2.2; L 1.88; I 2.06; T 2.24; S 1.7; F 1.86; W 2.4; P 1.88; N 2.3; H 2.22
R21: H 2.21; Y 1.96; Q 1.94; K 2.13; D 3.15; E 2.69; V 1.98; T 2.11; N 2.19; M 2.22; C 2.46; S 1.96; A 2.59
R1: F 2.41; D 1.93; C 3.43; V 2.27; N 1.69; G 1.8; I 2.12; K 2.22; A 2.03; T 1.99; Y 2.17; P 1.98; L 2.39
